For assay [1], the target named is GST-AeIAP1 BIR1 (residues 24-118 of AeIAP1) (A. aegypti). In words: pull-down.
Assay [2] deals with GST-AeIAP1 BIR2 (residues 188-278 of AeIAP1) (A. aegypti). The assay can be described thus: pull-down.

With “activated (cleaved) AeDronc: in vitro translated AeDronc partially processed by active recombinant AeDronc”, the % of input bound is 79.9 % of input in assay [1] and 50.2 % of input in assay [2].

In the case of “in vitro translated full length AeDronc (enzyme)”, the % of input bound in assay [1] is 70.9 % of input; in assay [2], 45.2 % of input.
